# Earlier results, collected in patent publication US20250341526A1, “NOVEL DYES” (Quantum-Si Incorporated, priority 2024, published 2025).
# Residue numbers refer to the chain shown, from its start. In names and notes the source's numbering stands.
# B1: PS375: ClpS amino acid recognition protein, SEQ ID NO: 8 (protein)
# chain: MEAEPETKVLASIPGVGTSEPFRVVLFNDEEHSFDEVIFQIIKAVRCSRAKAEALTMEVHNSGRSIVYTGPIEQCIRVSAVLEEIELRTEIQS
# B2: PS577: ClpS amino acid recognition protein, SEQ ID NO: 91 (protein, listed as Tuwongella immobilis)
# chain: MSASSSQPGTTTKPDLDIQPRLLPPFHVILENDEFHSMEFVIDTLRKVLGVSIERAYQLMMTAHESGQAIIWTGPKEVAELKYEQVIGFHEKRSDGRDLGPLGCRIEPAV
# B3: PS376: ClpS amino acid recognition protein, SEQ ID NO: 9 (protein)
# chain: MPTNDLDLLEKQDVKIERPKMYQVVMYNDDFTPFDFVVAVLMQFFNKGMDEATAIMMQVHMQGKGICGVFPKDIAETKATEVMKWAKVEQHPLRLQVEAQA
# B4: PS574: ClpS amino acid recognition protein, SEQ ID NO: 88 (protein, listed as Gemmata obscuriglobus)
# chain: MANATPTPDVVPEEETETRTRRQPPYAVVLHNDDTNTMDFVVTVLRKVFGYTVEKCVELMLEAHTQGKVAVWIGALEVAELKADQIKSFGPDPHVTKNGHPLGVTVEPAA
# B5: Agrobacterium tumifaciens ClpS1 (atClpS1): ClpS amino acid recognition protein, SEQ ID NO: 93 (protein, listed as Agrobacterium tumifaciens)
# chain: MIAEPICMQGEGDGEDGGTNRGTSVITRVKPKTKRPNLYRVLLLNDDYTPMEFVIHILERFFQKDREAATRIMLHVHQHGVGECGVFTYEVAETKVSQVMDFARQHQHPLQCVMEKK
# B6: PS218: ClpS amino acid recognition protein, SEQ ID NO: 98 (protein)
# chain: B5 chain with M51F, E52Q, T70W, M73T
# B7: atClpS1 C7S: ClpS amino acid recognition protein, SEQ ID NO: 103 (protein)
# chain: B5 chain with C7S
# B8: PS570: ClpS amino acid recognition protein, SEQ ID NO: 84 (protein, listed as Leptospira congkakensis)
# chain: MTGAGASQPSILEETEVRPRLSDGPWKVVLWDDDFHTYEYVIEMLMDVCQMPWEKAFQHAVEVDTRKKTIVFSGELEHAEFVHERILNYGPDPRMGSSKGSMTATLEQ
# B9: PS571: ClpS amino acid recognition protein, SEQ ID NO: 85 (protein, listed as Leptospira meyeri)
# chain: B8 chain with G3S, A4S, V17R, R18K, S73F, S97T, Q108K
# B10: PS569: ClpS amino acid recognition protein, SEQ ID NO: 83 (protein, listed as Planctomycetes bacterium)
# chain: MYSKNQIKIYCSEDDKGQTATPLLEKKPKFAPLYHVILWDDNTHTYEYVIKLLMSLFRMTFEKAYQHTLEVDKKGRTICITTHLEKAELKQEQISNFGPDILMQNSKGPMSATIEPAN
# B11: PS573: ClpS amino acid recognition protein, SEQ ID NO: 87 (protein, listed as Leptospira fluminis)
# chain: MSQTPVIEETTVKDPVKTGGPWKVVLWDDDEHTYDYVIEMLMEVCVMTMEQAFHHAVEVDTQKKTVVYSGEFEHAEHIQELILEYGPDPRMAVSKGSMSATLEKS
# B12: Agrobacterium tumifaciens ClpS2 (atClpS2): ClpS amino acid recognition protein, SEQ ID NO: 94 (protein, listed as Agrobacterium tumifaciens)
# chain: MSDSPVDLKPKPKVKPKLERPKLYKVMLLNDDYTPREFVTVVLKAVFRMSEDTGRRVMMTAHRFGSAVVVVCERDIAETKAKEATDLGKEAGFPLMFTTEPEE
# B13: atClpS2 C72S: ClpS amino acid recognition protein, SEQ ID NO: 100 (protein)
# chain: B12 chain with C72S
# B14: atClpS2-V1 + C72S: ClpS amino acid recognition protein, SEQ ID NO: 101 (protein)
# chain: B12 chain with R36M, E37S, C72S
# B15: PS578: ClpS amino acid recognition protein, SEQ ID NO: 92 (protein, listed as Planctomycetes bacterium)
# chain: MSGTVVESKPRNSTQLAPRWKVIVHDDPVTTFDFVLGVLRRVFAKPPGEARRITREAHDTGSALVDVLALEQAEFRRDQAHSLARAEGFPLTLTLEPAD
# B16: PS575: ClpS amino acid recognition protein, SEQ ID NO: 89 (protein, listed as Leptospira kmetyi)
# chain: MASTQTPDLNEITEESTKSTGGPWRVVLWDDNEHTYEYVIEMLMEICTMTVEKAFLHAVQVDQEKRTVVFSGEFEHAEHVQERILTYGADPRMSNSKGSMSATLEK
# B17: PS576: ClpS amino acid recognition protein, SEQ ID NO: 90 (protein)
# chain: B16 chain with M44V, T48M, Q63K, V69D, F74L, T86N, K106R
# modifications: Leptospira interrogans
# B18: PS568: ClpS amino acid recognition protein, SEQ ID NO: 82 (protein, listed as Dehalococcoidia bacterium)
# chain: MTTPSLPTRETEVEERTEVEPERLYHLVLLDDDQHSYQYVIEMLASIFGYGSEKAWTLARIVDTEGRAILETASHAQCERHQSQIHAYGADSRIPTSVGSMSAVIEEAGTPPQT
# B19: PS572: ClpS amino acid recognition protein, SEQ ID NO: 86 (protein, listed as Blastopirellula marina)
# chain: MSSEELSLQTRPKRQPPFGVILHNDDLNSFDYVIDSIRKVFHYELEKCFQLTLEAHETGRSLLWTGTLEGAELKQELLLSCGPDPIMLDKGGLPLKVTLEELPQ
# Tested on: amino acid at a terminal position of a polypeptide
# Settings: Table 1, ClpS proteins; amino acid at terminal position; inferred from literature and/or demonstrated by the inventors; cited from earlier work
row,Molecule,Binding Pref.
1,B1,"F, L"
2,B2,"I, L, V"
3,B3,"F, W, L"
4,B4,"I, L, V"
5,B5,"F, W, Y, L"
6,B6,"F, W, Y, L"
7,B7,"F, W, Y, L"
8,B8,"I, L, V"
9,B9,"I, L, V"
10,B10,"I, L, V"
11,B11,"I, L, V"
12,B12,"F, W, Y"
13,B13,"F, W, Y"
14,B14,"F, W, Y"
15,B15,"I, L, V"
16,B16,"I, L, V"
17,B17,"I, L, V"
18,B18,"I, L, V"
19,B19,"I, L, V"
